Experimental data from patent US20230056099.

These sequences were tested against thrombin (human alpha-thrombin) (UniProt P00734+P00734) (assay: inhibition). Settings: circular (5' and 3' ends joined); 0.1 nM thrombin, 2 uM fibrinogen, absorbance 350 nm; N = random nucleotide.

Point of comparison: “ATCTCGACTAGTCATAGGGGGCGCGAACATACGCGGTTGGTGTGGTTGGCTGACAATACTCGTTTTTGGTNNNNNNNNN [M5]”, IC50 0.11 nM. Against it:
- ATCTCGANNNNNNNTAGGGGGCGCGAACATACGCGGTTGGTGTGGTTGGCTGACAATACTCGTTTTTGGTGTCTCGGAT [M2] — 3.3-fold higher, 0.36 nM
- ATCTCGACTAGTCATAGGGGGCGCGAACATACGCGGTTGGTGTGGTTGGCTGACAATACTCGTNNNNNNNGTCTCGGAT [M4] — within 1.5-fold, 0.1 nM
- ATCTCGACTAGTCATAGGGGGCGCGAACATACGCGGTTGGTGTGGTTGGCTGACAANNNNNNNTTTTGGTGTCTCGGAT [M3] — 1.6-fold higher, 0.18 nM
- NNNNNNNCTAGTCATAGGGGGCGCGAACATACGCGGTTGGTGTGGTTGGCTGACAATACTCGTTTTTGGTGTCTCGGAT [M1] — 3.4-fold higher, 0.37 nM

Same assay, conditions: circular; 0.1 nM thrombin, 2 uM fibrinogen, absorbance 350 nm; random pool carrying fixed GGTTGGTGTGGTTGG core

For “ATCTCGACTAGTCANNNNNNNNNNNNNNNNNNNNGGTTGGTGTGGTTGGNNNNNNNNNNNNNNNNNNNNTGTCTCGGAT [Lib (random circular nucleic acid)]”, the IC50 was 72.1 nM.
